The numbers were not newly measured in publication PMC5116031, which cites them from elsewhere.

For the data set, the target named is BECN1 CCD (Rattus norvegicus) (UniProt Q91XJ1).

Sequence of BECN1 CCD (Q91XJ1 174-266): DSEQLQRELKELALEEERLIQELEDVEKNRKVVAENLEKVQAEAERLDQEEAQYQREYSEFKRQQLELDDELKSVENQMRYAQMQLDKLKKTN

One may read the Kd as the constant that tells how readily two partners part at equilibrium. As to BECN1 CCD (from UniProt Q91XJ1), the Kd was 89 µM.
